Experimental findings from paper PMC4141738 are described below.

The target in this experiment is endogenous PABPC1 of HEK 293T cells (human (endogenous in HEK 293T)) (UniProt P11940).
UniProt P11940, sequence (P11940 whole entry): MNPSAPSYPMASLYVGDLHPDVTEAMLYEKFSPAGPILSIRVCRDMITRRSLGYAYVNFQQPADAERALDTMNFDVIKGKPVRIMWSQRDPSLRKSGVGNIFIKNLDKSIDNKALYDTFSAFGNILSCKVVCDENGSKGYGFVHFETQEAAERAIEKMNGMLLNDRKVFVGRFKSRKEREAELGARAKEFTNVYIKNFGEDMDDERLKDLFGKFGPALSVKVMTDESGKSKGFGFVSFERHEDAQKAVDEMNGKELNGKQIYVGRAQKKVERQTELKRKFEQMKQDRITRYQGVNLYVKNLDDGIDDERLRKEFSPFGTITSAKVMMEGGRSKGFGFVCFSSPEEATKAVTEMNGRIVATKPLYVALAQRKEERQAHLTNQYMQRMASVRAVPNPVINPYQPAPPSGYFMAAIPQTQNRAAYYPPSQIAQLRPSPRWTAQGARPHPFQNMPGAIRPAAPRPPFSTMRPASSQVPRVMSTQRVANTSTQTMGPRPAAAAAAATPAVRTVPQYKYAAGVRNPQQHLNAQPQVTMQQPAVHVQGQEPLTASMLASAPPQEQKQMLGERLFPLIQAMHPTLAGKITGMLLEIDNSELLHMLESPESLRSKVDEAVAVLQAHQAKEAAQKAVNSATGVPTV

With “eIF4GI isoform e fused to MS2-HA (eIF4GIe-MS2) (natural protein)”, the miniμ ter310 construct A reporter mRNA level (RT-qPCR) relative to LacZ-MS2 on tethering of eIF4GIe-MS2 in HeLa cells was 4 fold.

“eIF4GI isoform d fused to MS2-HA (eIF4GId-MS2) (natural protein)” returned a miniμ ter310 construct A reporter mRNA level (RT-qPCR) relative to LacZ-MS2 on tethering of eIF4GId-MS2 in HeLa cells of 4 fold.
